Experimental findings from paper doi:10.1101/869925 (bioRxiv, 2019) are described below.

Series [1] deals with the molecule itself. The series can be described thus: native gel or EMSA.
Series [2] concerns the molecule itself. The series can be described thus: fluorescence correlation spectroscopy.

B1: endogenous human drebrin-like protein (DBNL) (natural protein)
chain: not shown
One may read the stoichiometry N as the number of molecules, sites or subunits per partner or assembly. As to B1, the “stoichiometry N” value in series [1] was determined as 2.

B2: his-EmGFP-DBNL(1-256) (domain or fragment)
chain: not shown
For B2, the binding result in series [2] was “binds”.

B3: his-EmGFP-DBNL(1-374) (domain or fragment)
chain: not shown
With B3, the binding result in series [2] was “binds”.
